Assay results from patent US5264366A, “Protease deficient bacillus” (Genencor, Inc., priority 1991, dated 1993).
*1 amine or outer side, *2 acyl side, *3 side chain or, on linkers, in order; H or OH if unused. Where a SMILES comes first, the peptide text is derived from it. The star is where a group is joined. pNA = O=[N+]([O-])c1ccc(N*)cc1; Suc = O=C(CCC(=O)[*:2])[*:1]

Legend:
Assay in all cases: Kinetic parameters from progress curves, p-nitroanilide substrates
[1] = target: T1, B. amyloliquefaciens subtilisin, wild type (gly-166) (Bacillus amyloliquefaciens, UniProt P00782); assay type: biochemical; settings: 25° C., 0.1M tris buffer, pH 8.6
T1 construct: codons for the mature subtilisin corresponding to that secreted by the B. amyloliquefaciens; made in house; host or cells: Bacillus subtilis BG2036 (protease deficient), plasmid pS4-5
T1 sequence (P00782 108-382): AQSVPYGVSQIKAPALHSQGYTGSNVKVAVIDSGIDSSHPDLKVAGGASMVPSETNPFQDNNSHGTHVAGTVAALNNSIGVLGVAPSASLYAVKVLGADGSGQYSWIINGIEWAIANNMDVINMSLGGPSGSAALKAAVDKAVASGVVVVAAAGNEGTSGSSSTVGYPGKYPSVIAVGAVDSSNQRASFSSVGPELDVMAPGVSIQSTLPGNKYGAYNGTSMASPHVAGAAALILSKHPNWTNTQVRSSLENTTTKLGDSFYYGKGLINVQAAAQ
Procedure: (§1) B. subtilis strain BG2036 obtained by the method of Example 11 was transformed by the plasmids of Examples 14, 15 or 20 and by pS4-5 as a control. Transformants were plated or cultured in shaker flasks for 16 to 48 h at 37° C. in LB media plus 12.5 μg/ml chloramphenicol. Mutant enzymatically active subtilisin was recovered by dialyzing cell broth against 0.01M sodium phosphate buffer, pH 6.2. The dialyzed broth was then titrated to pH 6.2 with 1N HCl and loaded on a 2.5×2 cm column of CM cellulose (CM-52 Whatman). After washing with 0.01M sodium phosphate, pH 6.2, the subtilisins (except mutants at position +222) were eluted with the same buffer made 0.08N in NaCl. The mutant subtilisins at position +222 were each eluted with 0.1M sodium phosphate, pH 7.0. The purified mutant and wild type enzymes were then used in studies of oxidation stability, Km, Kcat, Kcat/Km ratio, pH optimum, and changes in substrate specificity.
(§2) Various mutants for glycine+166 were screened for modified Kcat, Km and Kcat/Km ratios. Kinetic parameters were obtained by analysis of the progress curves of the reactions. The rate of reaction was measured as a function of substrate concentration. Data was analyzed by fitting to the Michaelis-Menton equation using the non-linear regression algorithm of Marquardt (Marquardt, D. W. 1963, "J. Soc. Ind. Appl. Math." 11, 431-41).

[2] = substrate: C[C@H](NC(=O)CCC(=O)O)C(=O)N[C@@H](C)C(=O)N1CCC[C@H]1C(=O)N[C@@H](Cc1ccccc1)C(=O)Nc1ccc([N+](=O)[O-])cc1; assay type: biochemical, B. amyloliquefaciens; settings: other: 25° C., 0.1M tris buffer, pH 8.6
Procedure: (§3) The procedure of Examples 13-14 was followed in substantial detail, except that the mutagenesis primer differed (the 37 mer shown in FIG. 13 was used), the two restriction enzymes were SacI and XmaIII rather than PstI and KpnI and the resulting constructions differed, as shown in FIG. 13.
as §1, §2

[3] = substrate: CC(C)[C@H](NC(=O)c1ccccc1)C(=O)NCC(=O)N[C@@H](CCCNC(=N)N)C(=O)Nc1ccc([N+](=O)[O-])cc1; assay type: biochemical, B. amyloliquefaciens; settings: other: 25° C., 0.1M tris buffer, pH 8.6
Procedure: as §3, §1, §2

[4] = substrate: CC(C)[C@H](NC(=O)c1ccccc1)C(=O)NCC(=O)N[C@@H](CCCNC(=N)N)C(=O)Nc1ccc([N+](=O)[O-])cc1; assay type: biochemical; settings: other: 25° C., 0.1M tris buffer, pH 8.6
Procedure: as §1, §2

| Molecule | Kcat [1] | Km [2] | kcat [2] | Km [3] | kcat [3] | Km [4] | kcat [4] |
| --- | --- | --- | --- | --- | --- | --- | --- |
| C[C@H](NC(=O)CCC(=O)O)C(=O)N[C@@H](C)C(=O)N1CCC[C@H]1C(=O)N[C@@H](Cc1ccccc1)C(=O)Nc1ccc([N+](=O)[O-])cc1 [sAAPFpN, succinyl-L-Alanyl-L-Alanyl-L-Prolyl-L-Phenylalanyl-p-nitroanilide] (Suc-AAPF-pNA) | 37 s⁻¹ |  |  |  |  |  |  |
| B. amyloliquefaciens subtilisin variant ala + 166 (A166, glycine+166 substituted) (Bacillus amyloliquefaciens; G273A) (protein, codons for the mature subtilisin corresponding to that secreted by the B. amyloliquefaciens; made in house; host or cells: Bacillus subtilis BG2036 (protease deficient)) AQSVPYGVSQIKAPALHSQGYTGSNVKVAVIDSGIDSSHPDLKVAGGASMVPSETNPFQDNNSHGTHVAGTVAALNNSIGVLGVAPSASLYAVKVLGADGSGQYSWIINGIEWAIANNMDVINMSLGGPSGSAALKAAVDKAVASGVVVVAAAGNEGTSGSSSTVAYPGKYPSVIAVGAVDSSNQRASFSSVGPELDVMAPGVSIQSTLPGNKYGAYNGTSMASPHVAGAAALILSKHPNWTNTQVRSSLENTTTKLGDSFYYGKGLINVQAAAQ |  | 27 µM | 19 s⁻¹ |  |  |  |  |
| B. amyloliquefaciens subtilisin variant arg + 166 (glycine+166 substituted) (Bacillus amyloliquefaciens; G273R) (protein, codons for the mature subtilisin corresponding to that secreted by the B. amyloliquefaciens; made in house; host or cells: Bacillus subtilis BG2036 (protease deficient)) AQSVPYGVSQIKAPALHSQGYTGSNVKVAVIDSGIDSSHPDLKVAGGASMVPSETNPFQDNNSHGTHVAGTVAALNNSIGVLGVAPSASLYAVKVLGADGSGQYSWIINGIEWAIANNMDVINMSLGGPSGSAALKAAVDKAVASGVVVVAAAGNEGTSGSSSTVRYPGKYPSVIAVGAVDSSNQRASFSSVGPELDVMAPGVSIQSTLPGNKYGAYNGTSMASPHVAGAAALILSKHPNWTNTQVRSSLENTTTKLGDSFYYGKGLINVQAAAQ |  | 62 µM | 19 s⁻¹ |  |  |  |  |
| B. amyloliquefaciens subtilisin variant asn + 166 (glycine+166 substituted) (Bacillus amyloliquefaciens; G273N) (protein, codons for the mature subtilisin corresponding to that secreted by the B. amyloliquefaciens; made in house; host or cells: Bacillus subtilis BG2036 (protease deficient)) AQSVPYGVSQIKAPALHSQGYTGSNVKVAVIDSGIDSSHPDLKVAGGASMVPSETNPFQDNNSHGTHVAGTVAALNNSIGVLGVAPSASLYAVKVLGADGSGQYSWIINGIEWAIANNMDVINMSLGGPSGSAALKAAVDKAVASGVVVVAAAGNEGTSGSSSTVNYPGKYPSVIAVGAVDSSNQRASFSSVGPELDVMAPGVSIQSTLPGNKYGAYNGTSMASPHVAGAAALILSKHPNWTNTQVRSSLENTTTKLGDSFYYGKGLINVQAAAQ |  | 140 µM | 26 s⁻¹ | 120 µM | 1 s⁻¹ |  |  |
| B. amyloliquefaciens subtilisin, wild type (gly-166) (Bacillus amyloliquefaciens) (protein, codons for the mature subtilisin corresponding to that secreted by the B. amyloliquefaciens; made in house; host or cells: Bacillus subtilis BG2036 (protease deficient), plasmid pS4-5) AQSVPYGVSQIKAPALHSQGYTGSNVKVAVIDSGIDSSHPDLKVAGGASMVPSETNPFQDNNSHGTHVAGTVAALNNSIGVLGVAPSASLYAVKVLGADGSGQYSWIINGIEWAIANNMDVINMSLGGPSGSAALKAAVDKAVASGVVVVAAAGNEGTSGSSSTVGYPGKYPSVIAVGAVDSSNQRASFSSVGPELDVMAPGVSIQSTLPGNKYGAYNGTSMASPHVAGAAALILSKHPNWTNTQVRSSLENTTTKLGDSFYYGKGLINVQAAAQ |  |  |  |  |  | 1100 µM | 2 s⁻¹ |
| B. amyloliquefaciens subtilisin variant asp + 166 (D166, glycine+166 substituted) (Bacillus amyloliquefaciens; G273D) (protein, codons for the mature subtilisin corresponding to that secreted by the B. amyloliquefaciens; made in house; host or cells: Bacillus subtilis BG2036 (protease deficient)) AQSVPYGVSQIKAPALHSQGYTGSNVKVAVIDSGIDSSHPDLKVAGGASMVPSETNPFQDNNSHGTHVAGTVAALNNSIGVLGVAPSASLYAVKVLGADGSGQYSWIINGIEWAIANNMDVINMSLGGPSGSAALKAAVDKAVASGVVVVAAAGNEGTSGSSSTVDYPGKYPSVIAVGAVDSSNQRASFSSVGPELDVMAPGVSIQSTLPGNKYGAYNGTSMASPHVAGAAALILSKHPNWTNTQVRSSLENTTTKLGDSFYYGKGLINVQAAAQ |  | 580 µM | 3 s⁻¹ | 41 µM | 2 s⁻¹ |  |  |
| B. amyloliquefaciens subtilisin variant phe + 166 (glycine+166 substituted) (Bacillus amyloliquefaciens; G273F) (protein, codons for the mature subtilisin corresponding to that secreted by the B. amyloliquefaciens; made in house; host or cells: Bacillus subtilis BG2036 (protease deficient)) AQSVPYGVSQIKAPALHSQGYTGSNVKVAVIDSGIDSSHPDLKVAGGASMVPSETNPFQDNNSHGTHVAGTVAALNNSIGVLGVAPSASLYAVKVLGADGSGQYSWIINGIEWAIANNMDVINMSLGGPSGSAALKAAVDKAVASGVVVVAAAGNEGTSGSSSTVFYPGKYPSVIAVGAVDSSNQRASFSSVGPELDVMAPGVSIQSTLPGNKYGAYNGTSMASPHVAGAAALILSKHPNWTNTQVRSSLENTTTKLGDSFYYGKGLINVQAAAQ |  | 14 µM | 3 s⁻¹ |  |  |  |  |
| B. amyloliquefaciens subtilisin variant hys + 166 (glycine+166 substituted) (Bacillus amyloliquefaciens; G273H) (protein, codons for the mature subtilisin corresponding to that secreted by the B. amyloliquefaciens; made in house; host or cells: Bacillus subtilis BG2036 (protease deficient)) AQSVPYGVSQIKAPALHSQGYTGSNVKVAVIDSGIDSSHPDLKVAGGASMVPSETNPFQDNNSHGTHVAGTVAALNNSIGVLGVAPSASLYAVKVLGADGSGQYSWIINGIEWAIANNMDVINMSLGGPSGSAALKAAVDKAVASGVVVVAAAGNEGTSGSSSTVHYPGKYPSVIAVGAVDSSNQRASFSSVGPELDVMAPGVSIQSTLPGNKYGAYNGTSMASPHVAGAAALILSKHPNWTNTQVRSSLENTTTKLGDSFYYGKGLINVQAAAQ |  | 110 µM | 15 s⁻¹ |  |  |  |  |
| B. amyloliquefaciens subtilisin variant lys + 166 (glycine+166 substituted) (Bacillus amyloliquefaciens; G273K) (protein, codons for the mature subtilisin corresponding to that secreted by the B. amyloliquefaciens; made in house; host or cells: Bacillus subtilis BG2036 (protease deficient)) AQSVPYGVSQIKAPALHSQGYTGSNVKVAVIDSGIDSSHPDLKVAGGASMVPSETNPFQDNNSHGTHVAGTVAALNNSIGVLGVAPSASLYAVKVLGADGSGQYSWIINGIEWAIANNMDVINMSLGGPSGSAALKAAVDKAVASGVVVVAAAGNEGTSGSSSTVKYPGKYPSVIAVGAVDSSNQRASFSSVGPELDVMAPGVSIQSTLPGNKYGAYNGTSMASPHVAGAAALILSKHPNWTNTQVRSSLENTTTKLGDSFYYGKGLINVQAAAQ |  | 34 µM | 15 s⁻¹ |  |  |  |  |
| B. amyloliquefaciens subtilisin variant glu + 166 (E166, glycine+166 substituted) (Bacillus amyloliquefaciens; G273E) (protein, codons for the mature subtilisin corresponding to that secreted by the B. amyloliquefaciens; made in house; host or cells: Bacillus subtilis BG2036 (protease deficient)) AQSVPYGVSQIKAPALHSQGYTGSNVKVAVIDSGIDSSHPDLKVAGGASMVPSETNPFQDNNSHGTHVAGTVAALNNSIGVLGVAPSASLYAVKVLGADGSGQYSWIINGIEWAIANNMDVINMSLGGPSGSAALKAAVDKAVASGVVVVAAAGNEGTSGSSSTVEYPGKYPSVIAVGAVDSSNQRASFSSVGPELDVMAPGVSIQSTLPGNKYGAYNGTSMASPHVAGAAALILSKHPNWTNTQVRSSLENTTTKLGDSFYYGKGLINVQAAAQ |  | 340 µM | 11 s⁻¹ | 27 µM | 2 s⁻¹ |  |  |
